Measurements from IntAct's records for PubMed 21565175.

How the values were obtained:
ARHGAP30, Q7Z6I6-2 [1] = biological target: ARHGAP30, Q7Z6I6-2
ARHGAP30, Q7Z6I6-2 [2] = biological target: ARHGAP30, Q7Z6I6-2; remark: listed apart in the source
rhg31_mouse Arhgap31 = rhg31_mouse Arhgap31 (UniProt A6X8Z5)
Chain of rhg31_mouse Arhgap31 (A6X8Z5 whole entry): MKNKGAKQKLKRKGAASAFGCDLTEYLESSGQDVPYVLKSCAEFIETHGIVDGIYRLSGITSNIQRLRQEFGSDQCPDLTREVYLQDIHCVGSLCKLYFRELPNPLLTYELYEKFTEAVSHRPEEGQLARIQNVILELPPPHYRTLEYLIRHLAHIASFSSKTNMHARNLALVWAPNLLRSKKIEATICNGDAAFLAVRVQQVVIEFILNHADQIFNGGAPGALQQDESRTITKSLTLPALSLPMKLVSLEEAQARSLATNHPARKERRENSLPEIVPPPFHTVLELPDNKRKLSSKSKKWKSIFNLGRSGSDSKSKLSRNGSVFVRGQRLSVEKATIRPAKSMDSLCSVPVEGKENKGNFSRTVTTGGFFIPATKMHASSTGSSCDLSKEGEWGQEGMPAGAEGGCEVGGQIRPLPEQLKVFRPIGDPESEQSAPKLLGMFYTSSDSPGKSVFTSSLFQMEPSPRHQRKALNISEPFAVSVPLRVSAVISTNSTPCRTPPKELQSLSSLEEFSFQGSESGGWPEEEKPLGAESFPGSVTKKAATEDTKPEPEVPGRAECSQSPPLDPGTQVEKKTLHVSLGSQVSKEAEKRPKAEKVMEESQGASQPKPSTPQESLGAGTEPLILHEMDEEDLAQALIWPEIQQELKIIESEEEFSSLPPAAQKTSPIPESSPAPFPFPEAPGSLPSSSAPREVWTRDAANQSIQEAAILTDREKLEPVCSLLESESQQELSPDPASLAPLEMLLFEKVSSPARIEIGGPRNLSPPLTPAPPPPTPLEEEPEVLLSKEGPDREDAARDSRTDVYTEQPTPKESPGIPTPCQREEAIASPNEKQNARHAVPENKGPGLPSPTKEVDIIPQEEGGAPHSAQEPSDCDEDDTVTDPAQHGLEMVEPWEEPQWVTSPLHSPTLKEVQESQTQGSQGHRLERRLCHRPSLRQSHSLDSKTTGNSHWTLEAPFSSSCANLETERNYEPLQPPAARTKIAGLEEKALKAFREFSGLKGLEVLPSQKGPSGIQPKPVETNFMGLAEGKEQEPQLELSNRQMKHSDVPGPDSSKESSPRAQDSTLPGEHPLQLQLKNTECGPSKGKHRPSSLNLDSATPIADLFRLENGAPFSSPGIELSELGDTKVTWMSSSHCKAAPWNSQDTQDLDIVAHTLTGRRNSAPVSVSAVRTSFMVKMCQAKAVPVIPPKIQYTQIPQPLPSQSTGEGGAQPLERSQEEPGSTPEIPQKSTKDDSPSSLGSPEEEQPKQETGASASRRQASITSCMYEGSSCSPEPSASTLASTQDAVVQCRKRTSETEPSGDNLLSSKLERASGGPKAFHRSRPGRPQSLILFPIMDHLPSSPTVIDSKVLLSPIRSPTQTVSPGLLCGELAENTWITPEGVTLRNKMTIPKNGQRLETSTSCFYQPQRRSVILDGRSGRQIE

Chain of ARHGAP30, Q7Z6I6-2 (Q7Z6I6 other isoform, or with tags, fused parts or gaps): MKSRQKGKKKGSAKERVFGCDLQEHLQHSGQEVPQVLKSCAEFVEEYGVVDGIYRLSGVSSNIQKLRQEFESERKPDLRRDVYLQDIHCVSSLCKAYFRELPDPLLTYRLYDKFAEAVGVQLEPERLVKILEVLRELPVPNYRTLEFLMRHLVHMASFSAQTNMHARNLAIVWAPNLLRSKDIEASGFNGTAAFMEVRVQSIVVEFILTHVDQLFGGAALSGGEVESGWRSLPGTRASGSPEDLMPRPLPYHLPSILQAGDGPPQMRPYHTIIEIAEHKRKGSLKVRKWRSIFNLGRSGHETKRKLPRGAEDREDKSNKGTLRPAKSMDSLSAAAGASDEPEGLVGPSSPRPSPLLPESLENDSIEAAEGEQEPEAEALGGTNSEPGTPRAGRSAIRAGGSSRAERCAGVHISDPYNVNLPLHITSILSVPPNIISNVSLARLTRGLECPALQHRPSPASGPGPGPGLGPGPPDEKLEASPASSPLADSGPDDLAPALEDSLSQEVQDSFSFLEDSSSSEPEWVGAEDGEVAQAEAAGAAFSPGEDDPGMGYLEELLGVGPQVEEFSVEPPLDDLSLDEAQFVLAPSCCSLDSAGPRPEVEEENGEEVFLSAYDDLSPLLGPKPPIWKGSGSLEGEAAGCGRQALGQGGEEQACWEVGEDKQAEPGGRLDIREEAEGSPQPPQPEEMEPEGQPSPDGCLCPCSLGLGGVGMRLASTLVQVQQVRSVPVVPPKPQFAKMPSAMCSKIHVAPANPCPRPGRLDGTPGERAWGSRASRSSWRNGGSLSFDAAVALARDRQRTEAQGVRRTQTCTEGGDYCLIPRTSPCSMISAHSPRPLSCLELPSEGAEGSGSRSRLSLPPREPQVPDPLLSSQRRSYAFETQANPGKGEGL
Chain of Rho-related GTP-binding protein RhoU (Homo sapiens), Q7L0Q8 F86C (Q7L0Q8 whole entry F86C): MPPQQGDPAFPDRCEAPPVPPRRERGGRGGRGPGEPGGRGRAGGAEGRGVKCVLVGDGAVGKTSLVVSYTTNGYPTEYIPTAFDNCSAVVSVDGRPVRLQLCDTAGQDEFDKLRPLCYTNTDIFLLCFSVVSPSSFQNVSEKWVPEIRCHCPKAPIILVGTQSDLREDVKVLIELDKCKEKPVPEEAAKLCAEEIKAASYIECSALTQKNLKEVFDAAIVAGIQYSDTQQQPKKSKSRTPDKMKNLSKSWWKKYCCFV

effect of a mutation on the interaction (ARHGAP30, Q7Z6I6-2 [1]) | effect of a mutation on the interaction (ARHGAP30, Q7Z6I6-2 [2]) | effect of a mutation on the interaction (rhg31_mouse Arhgap31) | Substance
decreasing interaction strength | disrupting interaction strength |  | Rho-related GTP-binding protein RhoU (Homo sapiens), Q7L0Q8 F83G
 | with no effect | with no effect | Rho-related GTP-binding protein RhoU (Homo sapiens), Q7L0Q8 Q107L

Continued, substance first:

Substance | effect of a mutation on the interaction (ARHGAP30, Q7Z6I6-2 [1]) | effect of a mutation on the interaction (ARHGAP30, Q7Z6I6-2 [2]) | effect of a mutation on the interaction (rhg31_mouse Arhgap31)
Rho-related GTP-binding protein RhoU (Homo sapiens), Q7L0Q8 F86C |  | with no effect | 
Rho-related GTP-binding protein RhoU (Homo sapiens), Q7L0Q8 P80G |  | with no effect | 
Rho-related GTP-binding protein RhoU (Homo sapiens), Q7L0Q8 T63N |  | with no effect | disrupting interaction strength
